Source: patent US20200262895A1 (Biogen, published 2020)
Changes are numbered by the printed parent chain. Numbers in names are those of the source.

B1: recombinant human antibody NI-105.29G10 (germlined) (antibody, human IgG1, V domains shown)
VH: EVQLVESGGDLVQPGGSLRLSCAASGFDFSGYSMAWVRQAPGKGLEWVSYISGTYVSGGTGTMYYLDSVKGRFFISRDDATSSLYLQMDSLRDEDTAVYYCARVYDYGEDWGQGTLVTVSS
VL: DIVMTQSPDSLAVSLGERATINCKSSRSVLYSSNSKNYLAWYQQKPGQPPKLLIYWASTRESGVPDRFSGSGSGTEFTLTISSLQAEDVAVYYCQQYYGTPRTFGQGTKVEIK
notes: Complete recombinant human IgG1 by the methods
B2: recombinant human antibody NI-105.17C1 (not germlined, as used in Table 7) (antibody, human IgG1, V domains shown)
VH: EVQLVQSGAEVKKPGESLKISCKAFGYSFTNFWIGWVRQVPGKGLEWVGIIYPGDSDTRYSPSFQGQVTISADKSIDTAYLQWGHLKASDSAMYFCARRGFWTGSQIEYWGQGTLVTVSS
VL: QSALTQPPSASGSPGHSVTISCTGTSSDVGNYSFVSWYQQYPGKAPKVIIYDVSKRSSGVPDRFFGSKSANTASLTVSGVQEEDEADYFCSSYGGSKYPWVFGGGTKLTVL
notes: Complete human IgG1 by the methods
B3: recombinant human antibody NI-105.48E5 (germlined) (antibody, V domains shown)
VH: EVQLVESGGGLVQPGGSLKLSCAASGFTFSGSAMHWVRQASGKGLEWVGRIRSKANSYATAYAASVKGRFTISRDDSKNTAYLQMNSLKTEDTAVYYCTSPTVTTEVWGQGTLVTVSS
VL: not shown
notes: as for B1
B4: recombinant human antibody NI-105.40E8 (NI-105.40E8-hIgG1, germlined) (antibody, V domains shown)
VH: EVQLVESGGGLVQPGGSLRLSCAASGFTFPNYVMTWVRQAPGKGLEWVSGISGSGGSTDYADSVKGRFTISRDNSKNTLYLQMNSLRVEDTALYYCAKGSGGIRGQGTMVTVSS
VL: QSALTQPRSVSGSPGQSVTISCTGTSSDVGGYNYVSWHQQHPGKAPKLLIYDVTKRPSGVPDRFSGSKSGNTAALTISGLQAEDEADYYCHSYVGSYTLVFGGGTKLTVLG
notes: Heavy chain is human IgG1
B5: recombinant human antibody NI-105.6L9 (germlined) (antibody, human IgG1, V domains shown)
VH: EVQLVESGGGLVQPGGSLRLSCAGTRFTFSTYAMGWVRQAPGRGLEWVSAIGGSGDSTSYADSVKGRFTISRDNSKNTLYLQMNSLRAEDTAVYYCAKGVYDYLWGSYRLFDYWGQGTLVTVSS
VL: SYVLTQPPSVSVAPGQTARFTCGGNNIASKSVHWYQQKPGQAPVLVVYDDSDRPSRIPERFSGSNSGNTATLTISRVEAGDEADYYCQVWDSTSDHVVFGGGTKLTVL
notes: as for B1
B6: recombinant human antibody NI-105.9C4 (germlined) (antibody, human IgG1, V domains shown)
VH: QVQLVQSGAEVKKPGASVKVSCKASGYIFTAFFMHWVRQAPGQGLEWMGWINPDSGATKYAHNFQGRVTMTRDTSISTAFMELSGLKSDDTGVYYCATGMAVTGNFWGQGTLVTVSS
VL: SYELTQPPSVSVSPGQTARITCSGDVLAETYARWFQQKPGQAPVLVMYRDRERPAGIPERFSGSSSGNTVTLTISGAQAEDEAVYHCHSVADNNLDWVFGGGTKLTVL
notes: as for B2
B7: recombinant human antibody NI-105.26B12 (germlined) (antibody, human IgG1, V domains shown)
VH: QVQLVESGGGVVQPGRSLRLSCAASGFTFTRYGMHWVRQAPGKGLEWVAVIWYDGTNKYYADSLQGRFTISRDTSTNTLYLQMNGLRVEDRAVYYCAREGFQGAIDYWGQGTLVTVSS
VL: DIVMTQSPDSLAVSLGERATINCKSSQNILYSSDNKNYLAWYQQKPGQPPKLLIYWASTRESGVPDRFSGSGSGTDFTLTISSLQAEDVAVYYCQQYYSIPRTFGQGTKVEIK
notes: as for B1
B8: recombinant human antibody NI-105.19C6 (germlined) (antibody, human IgG1, V domains shown)
VH: EVQLVQSGAEVKKPGESLKISCKASGYSFISYWVGWVRQMPGKGLEWMGIIYPGDSDTRYSPSFEGQVSISADKSISTAYLQWTSLKASDTAMYYCARHWGPAAVTDSPWFGPWGQGTLVTVSS
VL: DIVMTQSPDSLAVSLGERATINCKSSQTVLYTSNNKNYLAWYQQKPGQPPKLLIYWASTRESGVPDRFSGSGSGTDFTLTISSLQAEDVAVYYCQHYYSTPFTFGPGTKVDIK
notes: as for B1
B9: recombinant human antibody NI-105.22E1 (germlined) (antibody, human IgG1, V domains shown)
VH: EVQLVQSGAEVKKPGESLKISCKGSGYRFTTYWIGWVRQMPGKGLEWMGIIYPGDSDTRYSPSYQGQVTISADKSISTAYLQWSSLKASDTGMYYCARVAGDIGYENYYYYGMDVWGQGTTVTVSS
VL: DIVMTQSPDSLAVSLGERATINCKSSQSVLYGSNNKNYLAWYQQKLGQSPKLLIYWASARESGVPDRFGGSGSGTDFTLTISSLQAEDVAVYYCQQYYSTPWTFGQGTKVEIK
notes: as for B1
B10: recombinant human antibody NI-105.14E2 (germlined) (antibody, human IgG1, V domains shown)
VH: EVQLVQSGAEVKKPGDSLRISCKASGYNFPNYWIGWVRQMPGKGLEWMGIIYPGDSDIRYSPSFQGHVTISSDKSITTAYLQWTSLKVADSAMYYCARVERPDKGGWFGPWGQGTLVTVSS
VL: DIVMTQSPDSLAVSLGERATINCKSSQTLLYTSNNQNYLAWYQHKPGQPPKVLIYWASTREYGVPDRFSGSGSGTDFTLTISSLQPEDVAVYYCQQYYNSPYTFGQGTKLEIK
notes: as for B1
B11: recombinant human antibody NI-105.12E12 (germlined) (antibody, human IgG1, V domains shown)
VH: EVQLVESGGGLVQPGGSLKLSCAASGFSFSDSAFHWARQASGKGLEWVGRIRSKGNNYATAYAASVKGRFTVSRDDSKNTTYLQMNSLKTDDTAIYYCTRQGPSYGGINWGLGTLVTVSS
VL: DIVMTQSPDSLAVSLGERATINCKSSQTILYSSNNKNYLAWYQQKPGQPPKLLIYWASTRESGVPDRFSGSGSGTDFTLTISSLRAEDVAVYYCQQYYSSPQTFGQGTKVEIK
notes: as for B1
B12: recombinant human antibody NI-105.39E2 (germlined) (antibody, human IgG1, V domains shown)
VH: EVQLVESGGGLVQPGGSLRLSCAASGFTFSAYGMNWVRQAPGKGLEWVAHITGSGTPIFYADSVKGRFTISRDNAKSSLYLQMNSLRNDDTALYFCVRGTVDYWGQGTLVTVSS
VL: QAGLTQPPSVSKDLRQTATLTCSGNSNNVGNQGAAWLQQFPGHPPKLLFYENINRPSGISERFSASRSGNTASLTITGLQPEDEADYYCSAWDGHLNAWVFGGGTKLTVL
notes: as for B1
B13: recombinant human antibody NI-105.60E7 (germlined) (antibody, human IgG1, V domains shown)
VH: EVQLVESGGGFVRPGGSITLSCATSGFTFTKAWMTWVRQAPVKGLEWIGHIKTRIEGATTDYAAPVEGRFTISRDDSKNMVYLQMNSLKTEDSGIYYCSTDFDYWGQGTLVTVSS
VL: DVVMTQSPLSLPVTLGQPASISCTSSQSLLYSDGNTYLNWFQQRPGQSPRRLMYKVSKRDPGVPDRFSGSGSGTDFTLSISRVEAEDVGVYYCMQGSLWPRYTFGQGTKVEIK
notes: as for B1
B14: ch17C1(N31Q) mIgG2a (antibody)
heavy: EVQLVQSGAEVKKPGESLKISCKAFGYSFTNFWIGWVRQVPGKGLEWVGIIYPGDSDTRYSPSFQGQVTISADKSIDTAYLQWGHLKASDSAMYFCARRGFWTGSQIEYWGQGTQVTVSSAKTTAPSVYPLAPVCGDTTGSSVTLGCLVKGYFPEPVTLTWNSGSLSSGVHTFPAVLQSDLYTLSSSVTVTSSTWPSQSITCNVAHPASSTKVDKKIEPRGPTIKPCPPCKCPAPNLLGGPSVFIFPPKIKDVLMISLSPIVTCVVVDVSEDDPDVQISWFVNNVEVHTAQTQTHREDYNSTLRVVSALPIQHQDWMSGKEFKCKVNNKDLPAPIERTISKPKGSVRAPQVYVLPPPEEEMTKKQVTLTCMVTDFMPEDIYVEWTNNGKTELNYKNTEPVLDSDGSYFMYSKLRVEKKNWVERNSYSCSVVHEGLHNHHTTKSFSRTPGK
light: QSALTQPPSASGSPGHSVTISCTGTSSDVGQYSFVSWYQQYPGKAPKIIIYDVSKRSSGVPDRFFGSKSANTASLTVSGVQEEDEADYFCSSYGGSKYPWVFGGGTKLTVLGQPKSSPSVTLFPPSSEELETNKATLVCTITDFYPGVVTVDWKVDGTPVTQGMETTQPSKQSNNKYMASSYLTLTARAWERHSSYSCQVTHEGHTVEKSLSRADCS
B15: ch17C1(N31Q) mIgG1 Agly (antibody)
heavy: EVQLVQSGAEVKKPGESLKISCKAFGYSFTNFWIGWVRQVPGKGLEWVGIIYPGDSDTRYSPSFQGQVTISADKSIDTAYLQWGHLKASDSAMYFCARRGFWTGSQIEYWGQGTQVTVSSAKTTPPSVYPLAPGSAAQTNSMVTLGCLVKGYFPEPVTVTWNSGSLSSGVHTFPAVLQSDLYTLSSSVTVPSSTWPSETVTCNVAHPASSTKVDKKIVPRDCGCKPCICTVPEVSSVFIFPPKPKDVLTITLTPKVTCVVVDISKDDPEVQFSWFVDDVEVHTAQTQPREEQFQSTFRSVSELPIMHQDWLNGKEFKCRVNSAAFPAPIEKTISKTKGRPKAPQVYTIPPPKEQMAKDKVSLTCMITDFFPEDITVEWQWNGQPAENYKNTQPIMDTDGSYFVYSKLNVQKSNWEAGNTFTCSVLHEGLHNHHTEKSLSHSPGK
light: B14 light
notes: Aglycosylated Fc; also called ch17C1-mIgG1-Agly; ch17C1 Agly
B16: chimeric NI-105.17C1 (ch17C1), mouse IgG2a/lambda (antibody, V domains shown)
VH: B2 VH with L115Q
VL: QSALTQPPSASGSPGHSVTISCTGTSSDVGNYSFVSWYQQYPGKAPKIIIYDVSKRSSGVPDRFFGSKSANTASLTVSGVQEEDEADYFCSSYGGSKYPWVFGGGTKLTVLG
modifications: N-glycan on Asn-31 (CDR1), fully occupied on CHO expression
notes: also called ch17C1-mIgG2a
B17: recombinant human antibody NI-105.4E4 (antibody, V domains shown)
VH: EVQLVESGGGLVQPGGSLKLSCAASGFNFNISAIHWVRQASGKGLEWVGRIRSKSHNYATLYAASLKGRFTLSRDDSRNTAYLQMSSLQTEDMAVYYCTVLSANYDTFDYWGQGTLVTVSS
VL: LPVLTQPPSVSVSPGQTARISCFGDTLPKQYTYWYQQKPGQAPVLVIYKDTERPSGIPERFSGSSSGTTVTLTISGVQAEDEADYYCLSADNSATWVFGGGTKVTVL
modifications: Asn-30 of the VH carried an N-glycan when the chimeric ch4E4 was expressed in CHO cells; the letter is unchanged.
notes: Human antibody described in US 2012/0087861
B18: ch17C1(N31Q, I48V) mIgG2a (antibody, V domains shown)
VH: B2 VH with L115Q
VL: B16 VL with N31Q, I48V
notes: The sentence giving the chains names the antibody 'ch17C1(N31Q) mIgG2a' but lists the (N31Q, I48V) light chain

The binders below were run against T1, PHFTau (paired helical filaments containing pathologically phosphorylated tau filaments, extracted from AD … (human, UniProt P10636-8 1-441, limits assumed, pathologically phosphorylated (sites of the preparation not listed), aggregated filaments)) (assay: direct ELISA on coated PHFTau).
T1 construct: Brain extract, not a single defined isoform; also called human PHF tau; pathologically modified PHFTau
T1 sequence (P10636 other isoform, or with tags, fused parts or gaps limits assumed): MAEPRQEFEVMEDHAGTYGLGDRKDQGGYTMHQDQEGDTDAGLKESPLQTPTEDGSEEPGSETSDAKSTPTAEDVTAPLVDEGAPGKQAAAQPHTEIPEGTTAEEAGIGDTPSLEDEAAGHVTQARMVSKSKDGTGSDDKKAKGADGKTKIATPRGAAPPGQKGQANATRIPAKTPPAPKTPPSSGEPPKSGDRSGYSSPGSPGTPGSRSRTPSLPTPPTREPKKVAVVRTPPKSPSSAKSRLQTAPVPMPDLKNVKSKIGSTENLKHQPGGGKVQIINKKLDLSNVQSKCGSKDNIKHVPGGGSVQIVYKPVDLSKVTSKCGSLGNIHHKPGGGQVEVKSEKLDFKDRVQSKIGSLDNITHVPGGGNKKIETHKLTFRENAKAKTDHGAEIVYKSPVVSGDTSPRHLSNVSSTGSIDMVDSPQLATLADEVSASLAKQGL

EC50 | Binder
5.3 nM | B1
4.7 nM | B2

These binders were tested against T2, normal tau in wild type mouse brain (Wt) (mouse, UniProt P10637-2 1-430, limits assumed) (assay: immunohistochemistry on brain tissue sections).
T2 construct: Control tissue in immunohistochemistry
T2 sequence (P10637 other isoform, or with tags, fused parts or gaps limits assumed): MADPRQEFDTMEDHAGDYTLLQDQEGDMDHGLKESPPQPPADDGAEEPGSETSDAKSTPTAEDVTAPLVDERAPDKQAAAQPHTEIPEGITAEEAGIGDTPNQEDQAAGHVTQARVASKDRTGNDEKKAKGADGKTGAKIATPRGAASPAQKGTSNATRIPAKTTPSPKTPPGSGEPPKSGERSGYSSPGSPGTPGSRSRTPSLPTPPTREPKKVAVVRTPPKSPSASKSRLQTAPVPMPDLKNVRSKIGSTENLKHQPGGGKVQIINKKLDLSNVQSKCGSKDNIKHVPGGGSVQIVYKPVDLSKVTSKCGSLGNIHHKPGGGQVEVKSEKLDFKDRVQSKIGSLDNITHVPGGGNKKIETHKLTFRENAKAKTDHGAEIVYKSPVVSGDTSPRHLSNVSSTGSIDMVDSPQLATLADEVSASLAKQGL

binding result | Binder
no binding | B3
no binding | B4

Each binder was assayed against T3, recombinant human tau, isoform Tau-F of 441 aa (hTau40) (human, UniProt P10636 1-758) (assay: direct ELISA on coated recombinant tau (rTau)).
T3 construct: Bought from rPeptide (Bogart, GA, USA); coated on ELISA plates, blotted, or spotted as overlapping peptides; also called full-length tau; rTau
T3 sequence (P10636 other isoform, or with tags, fused parts or gaps limits assumed): as the sequence (P10636 other isoform, or with tags, fused parts or gaps limits assumed) above

EC50 | Binder
2.5 nM | B5
5.2 nM | B6
2.9 nM | B7
4 nM | B8
1.1 nM | B9
0.65 nM | B10
3.8 nM | B1
28.6 nM | B11
3.3 nM | B2
0.7 nM | B12
0.18 nM | B13

These binders were tested against T3, recombinant human tau, isoform Tau-F of … (assay: ELISA on recombinant Tau, absorbance at 450 nm).

EC50 (read off the curve) | Binder
~0.8 µg/mL | B14
~0.9 µg/mL | B15
~0.8 µg/mL | B16

Each binder was assayed against T3, recombinant human tau, isoform Tau-F of … (assay: direct ELISA, hTau40 coated at 1 ug/ml).
Procedure: The EC₅₀ values were estimated by a non-linear regression using GraphPad Prism software.
ELISA plates were coated with recombinant human tau (hTau40, 1 ug/ml), PHFTau (1:100) and control preparation (1:100), and incubated with varying antibody concentrations.

EC50 | Binder
2.4 nM | B17

Target: T3, recombinant human tau, isoform Tau-F of …
Test: ELISA on recombinant Tau, absorbance at 450 nm
Remark: another data set of the same source

EC50 (read off the curve) | Binder
~0.3 µg/mL | B14
~0.3 µg/mL | B18
